Experimental data taken from article PMC6793842.

Assays:
Test in all cases: SPR
[1] = molecular target: human basigin, entire ectodomain (human) (UniProt P35613)
[2] = molecular target: gorilla basigin, entire ectodomain (gorilla)
[3] = molecular target: gorilla basigin, entire ectodomain; conditions: read off a plot; for other: t1/2 (interaction half-life): parent: est. 1.9 s; for response (response units): plateau of the highest curve of four 2-fold serial dilutions (600 to 75 nM), parent: est. 92
[4] = molecular target: chimpanzee basigin, entire ectodomain (chimpanzee)

Chain of human basigin, entire ectodomain (human) (P35613 138-325): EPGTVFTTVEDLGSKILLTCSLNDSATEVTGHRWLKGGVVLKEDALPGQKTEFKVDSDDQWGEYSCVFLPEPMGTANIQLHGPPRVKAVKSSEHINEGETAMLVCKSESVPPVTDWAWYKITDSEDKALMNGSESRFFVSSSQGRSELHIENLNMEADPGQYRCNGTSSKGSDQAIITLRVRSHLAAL

P. gaboni RH5 (ligand) gave a Kd [1] of 3.6 µM.
P. adleri RH5 (ligand) gave a Kd [2] of 1000 nM and a Kd [1] of 3.1 µM.
“introgressed ancestral RH5 (reticulocyte-binding protein homologue 5) (from UniProt Q8IFM5) R216T” showed an other: t1/2 (interaction half-life) [3] of 2.3 s and a response (response units) [3] of 130.
For “introgressed ancestral RH5 (reticulocyte-binding protein homologue 5) (from UniProt Q8IFM5) H200Y”, the response (response units) [3] was 26.
P. praefalciparum RH5 (ligand) showed a Kd [2] of 2500 nM and a Kd [1] of 1.9 µM.
“introgressed ancestral RH5 (reticulocyte-binding protein homologue 5) (from UniProt Q8IFM5) Y197S” gave an other: t1/2 (interaction half-life) [3] of 1.9 s and a response (response units) [3] of 210.
Substance P. billcollinsi RH5 (ligand) has a Kd [4] of 1800 nM.
“introgressed ancestral RH5 (reticulocyte-binding protein homologue 5) (from UniProt Q8IFM5) D148H” showed an other: t1/2 (interaction half-life) [3] of 2.5 s and a response (response units) [3] of 190.
“introgressed ancestral RH5 (reticulocyte-binding protein homologue 5) (from UniProt Q8IFM5) Y203C” showed an other: t1/2 (interaction half-life) [3] of 1.2 s and a response (response units) [3] of 120.
“introgressed ancestral RH5 (reticulocyte-binding protein homologue 5) (from UniProt Q8IFM5) Q219K” was tested, and the other: t1/2 (interaction half-life) [3] was 2.2 s and the response (response units) [3] was 310.
